Results as given in article PMC6513753 (Nature chemical biology, 2018).

Biological target: the molecule itself
Assay: crystal structure

B1: nepetalactol-related short-chain dehydrogenase/reductase 3 (NEPS3) from Nepeta mussinii (enzyme)
chain: MANNSVMMKKKLEGKVAIVTGGASGIGEATARLFVKYGARAVVIADIQSELGRSVAESIGKERCSFVQCDVADEEQVKSMIEWTATTYGGLDVMFSNAGVLNSAAQTVKDLDLPLFDKVMRVNTRGAAVCVKQAARKMVELGRGGSIICNAGSSAVRGAHGVTDYVMSKHAVIGLVRSASMQLGAHSIRVNSVSPMAVATPLTRNQGISTPDDVQKFLMPFISLKGVPPTAEQVAEAAAFLGSDEAAFVTGHDLPVDGGVLCMPFLLGSA
stoichiometry N: 4
